{"source": "paper PMC6926464", "about": "“Gating control of the cardiac sodium channel Nav1.5 by its β3-subunit involves distinct roles for a transmembrane glutamic acid and the extracellular domain” (The Journal of Biological Chemistry, 2019)", "proteins": {"B1": {"name": "full-length WT β3-subunit with C-terminal EGFP tag (natural protein, human, UniProt Q9NY72 23-215, looked up)", "chain": "FPVCVEVPSETEAVQGNPMKLRCISCMKREEVEATTVVEWFYRPEGGKDFLIYEYRNGHQEVESPFQGRLQWNGSKDLQDVSITVLNVTLNDSGLYTCNVSREFEFEAHRPFVKTTRLIPLRVTEEAGEDFTSVVSEIMMYILLVFLTLWLLIEMIYCYRKVSKAEEAAQENASDYLAIPSENKENSAVPVEE", "notes": "voltage-gated sodium channel auxiliary β3-subunit, full-length; glycosylated (multiple bands on SDS-PAGE); also called WT-β3-EGFP; FL β3-EGFP; source: HEK293F, transfected (pcDNA3 WT-β3-EGFP), in lysate; not shown: EGFP, C-terminal, kept"}, "B2": {"name": "full-length β3-subunit E176K with C-terminal EGFP tag (natural protein, human, UniProt Q9NY72 23-215, looked up)", "chain": "B1 chain with E154K", "notes": "voltage-gated sodium channel auxiliary β3-subunit, full-length, with E176K in the transmembrane region; residues numbered from the start codon of the cDNA; Made by site-directed mutagenesis of WT-β3-EGFP; also called β3-E176K-EGFP; E176K-EGFP; source: HEK293F, transfected, in lysate; not shown: EGFP, C-terminal, kept"}}, "target": "the molecule itself", "assay": "cross-linking; HEK293F cells singly transfected with EGFP-tagged β3 constructs; lysate (Hanks' balanced salt solution, 1% Triton X-100, 0.2% SDS, 0.5% sodium deoxycholate) incubated with BS3 (5 mM) for 1 h at 4 °C, quenched with glycine; SDS-PAGE and anti-GFP Western blot", "note": "Numbering of substitutions follows the chain as printed. Numbers in names are those of the source. Where “and” joins values, the source holds several entries; their conditions need not be identical. Equal entries are not always repeated."}
{"protein": "B1", "values": [{"measurement": "stoichiometry N", "result": "2 and 3"}]}
{"protein": "B2", "values": [{"measurement": "stoichiometry N", "result": "2 and 3"}]}
